Assay [1] has as its target T1, FcγRIIB-Fc fusion protein (soluble dimeric FcγRIIB) (human, UniProt P31994 43-217).
T1 construct: extracellular domain; also called FcRIIB-Fc; FcR2B; not shown: hinge-CH2-CH3 domain of human IgG2
T1 sequence (looked up): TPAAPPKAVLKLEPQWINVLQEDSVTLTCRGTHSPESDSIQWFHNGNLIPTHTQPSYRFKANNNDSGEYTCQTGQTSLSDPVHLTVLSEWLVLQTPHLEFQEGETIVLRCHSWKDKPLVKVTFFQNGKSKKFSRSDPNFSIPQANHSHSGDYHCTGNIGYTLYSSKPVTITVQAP
As to the kind of experiment: BIAcore. On the technique in general: Surface plasmon resonance follows binding to a sensor surface in real time, without labels.

The target in assay [2] is T1, FcγRIIB-Fc fusion protein (soluble …). As to the kind of experiment: BIAcore separate fit.
The target is the same in assay [3]. The experiment in a line: BIAcore ch4-4-20.

Broadly, the koff is the first-order rate constant of dissociation. Higher therefore signals a short-lived complex.

B1: ch4-4-20 K288N, A330S, P396L (antibody)
chain: EPKSCDKTHTCPPCPAPELLGGPSVFLFPPKPKDTLMISRTPEVTCVVVDVSHEDPEVKFNWYVDGVEVHNANTKPREEQYNSTYRVVSVLTVLHQDWLNGKEYKCKVSNKALPSPIEKTISKAKGQPREPQVYTLPPSREEMTKNQVSLTCLVKGFYPSDIAVEWESNGQPENNYKTTPLVLDSDGSFFLYSKLTVDKSRWQQGNVFSCSVMHEALHNHYTQKSLSLSPGK
Turning to B1, the koff in assay [1] and in assay [2] was 0.05 s⁻¹ each time.

B2: ch4-4-20 Y319F, P352L, P396L (antibody)
chain: EPKSCDKTHTCPPCPAPELLGGPSVFLFPPKPKDTLMISRTPEVTCVVVDVSHEDPEVKFNWYVDGVEVHNAKTKPREEQYNSTYRVVSVLTVLHQDWLNGKEFKCKVSNKALPAPIEKTISKAKGQPREPQVYTLLPSREEMTKNQVSLTCLVKGFYPSDIAVEWESNGQPENNYKTTPLVLDSDGSFFLYSKLTVDKSRWQQGNVFSCSVMHEALHNHYTQKSLSLSPGK
Turning to B2, the “Koff WT/Mut” value in assay [3] worked out at 2.29. Also, the koff in assay [1] is 0.041 s⁻¹.

B3: ch4-4-20 E293V, Q295E, A327T (antibody)
chain: EPKSCDKTHTCPPCPAPELLGGPSVFLFPPKPKDTLMISRTPEVTCVVVDVSHEDPEVKFNWYVDGVEVHNAKTKPRVEEYNSTYRVVSVLTVLHQDWLNGKEYKCKVSNKTLPAPIEKTISKAKGQPREPQVYTLPPSREEMTKNQVSLTCLVKGFYPSDIAVEWESNGQPENNYKTTPPVLDSDGSFFLYSKLTVDKSRWQQGNVFSCSVMHEALHNHYTQKSLSLSPGK
With B3, in assay [3], the “Koff WT/Mut” value is 1.3. In addition, the koff in assay [1] came to 0.074 s⁻¹.

B4: ch4-4-20 MgFc66 (A330V, G427M) (antibody)
chain 1: not shown
chain 2: DVVMTQTPLSLPVSLGDQASISCRSSQSLVHSNGNTYLRWYLQKPGQSPKVLIYKVSNRFSGVPDRFSGSGSGTDFTLKISRVEAEDLGVYFCSQSTHVPWTFGGGTKLEIKRTVAAPSVFIFPPSDEQLKSGTASVVCLLNNFYPREAKVQWKVDNALQSGNSQESVTEQDSKDSTYSLSSTLTLSKADYEKHKVYACEVTHQGLSSPVTKSFNRGEC
Regarding B4, in assay [3], the “Koff WT/Mut” value worked out at 0.62.

The record behind these values is patent US20050064514A1 (MacroGenics, published 2005).
